T1: extracellular portion of cynomolgus monkey CD137 fused to a histidine-containing peptide (cynomolgus monkey, UniProt A9YYE7 24-186)
T1 construct: extracellular domain; also called cynoCD137
T1 sequence: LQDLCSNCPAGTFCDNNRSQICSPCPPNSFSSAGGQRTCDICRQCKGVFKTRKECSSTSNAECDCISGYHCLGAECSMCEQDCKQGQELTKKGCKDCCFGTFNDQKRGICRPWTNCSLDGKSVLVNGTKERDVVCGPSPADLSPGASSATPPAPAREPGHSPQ

B1: DART-G (bispecific antibody, human IgG1, kappa, L234A L235A)
heavy: QVQLVQSGAEVKKPGASVKVSCKASGYTFTNYGMNWVRQAPGQGLEWMGWINTNIGEPTYTEEFKGRVTMTRDTSISTAYMELSRLRSDDTAVYYCARDDGYGNRVSYWGQGTLVTVSSASTKGPSVFPLAPSSKSTSGGTAALGCLVKDYFPEPVTVSWNSGALTSGVHTFPAVLQSSGLYSLSSVVTVPSSSLGTQTYICNVNHKPSNTKVDKRVEPKSCDKTHTCPPCPAPEAAGGPSVFLFPPKPKDTLMISRTPEVTCVVVDVSHEDPEVKFNWYVDGVEVHNAKTKPREEQYNSTYRVVSVLTVLHQDWLNGKEYKCKVSNKALPAPIEKTISKAKGQPREPQVYTLPPSREEMTKNQVSLSCAVKGFYPSDIAVEWESNGQPENNYKTTPPVLDSDGSFFLVSKLTVDKSRWQQGNVFSCSVMHEALHNRYTQKSLSLSPGK
light: DIQMTQSPSSLSASVGDRVTITCKASQDISNYLSWFQQKPGKAPKTLIYRANRLQSGVPSRFSGSGSGTDFTLTISSLQPEDFATYYCLQHDEFPWTFGQGTKLEIKRTVAAPSVFIFPPSDEQLKSGTASVVCLLNNFYPREAKVQWKVDNALQSGNSQESVTEQDSKDSTYSLSSTLTLSKADYEKHKVYACEVTHQGLSSPVTKSFNRGEC
chain 1: QVQLVQSGAEVKKPGASVKVSCKASGYTFTNYGMNWVRQAPGQGLEWMGWINTNIGEPTYTEEFKGRVTMTRDTSISTAYMELSRLRSDDTAVYYCARDDGYGNRVSYWGQGTLVTVSSASTKGPSVFPLAPSSKSTSGGTAALGCLVKDYFPEPVTVSWNSGALTSGVHTFPAVLQSSGLYSLSSVVTVPSSSLGTQTYICNVNHKPSNTKVDKRVEPKSCDKTHTCPPCPAPEAAGGPSVFLFPPKPKDTLMISRTPEVTCVVVDVSHEDPEVKFNWYVDGVEVHNAKTKPREEQYNSTYRVVSVLTVLHQDWLNGKEYKCKVSNKALPAPIEKTISKAKGQPREPQVYTLPPSREEMTKNQVSLWCLVKGFYPSDIAVEWESNGQPENNYKTTPPVLDSDGSFFLYSKLTVDKSRWQQGNVFSCSVMHEALHNHYTQKSLSLSPGGGGSGGGSGGGDIQMTQSPSSLSASVGDRVTITCRPSQDISNYLNWYQQKPDKTVKLLIYYTSRLRSGVPSRFSGSGSGTDFTFTISSLQPEDIATYFCQQGDTLPYTFGQGTKLEIKGGGSGGGGQVQLVQSGAEVKKPGASVKVSCKASGYTFTSYWINWVKQAPGQGLEWIGNIYPSDSYTNYNQKFKDKATITADKSTSTAYMELSSLRSEDTAVYYCTRDYGSSYSFDYWGQGTTVTVSSGGCGGGEVAALEKEVAALEKEVAALEKEVAALEK
chain 2: DIQMTQSPSSLSASVGDRVTITCRPSQDISNYLNWYQQKPDKTVKLLIYYTSRLRSGVPSRFSGSGSGTDFTFTISSLQPEDIATYFCQQGDTLPYTFGQGTKLEIKGGGSGGGGQVQLVQSGAEVKKPGASVKVSCKASGYTFTSYWINWVKQAPGQGLEWIGNIYPSDSYTNYNQKFKDKATITADKSTSTAYMELSSLRSEDTAVYYCTRDYGSSYSFDYWGQGTTVTVSSGGCGGGKVAALKEKVAALKEKVAALKEKVAALKE
B2: hCD137 MAB-3 (1B.3) (antibody, V domains shown)
VH: QVQLVQSGAEVKKPGASVKVSCKASGYTFTSYWINWVKQAPGQGLEWIGNIYPSDSYTNYNQKFKDKATITADKSTSTAYMELSSLRSEDTAVYYCTRDYGSAYSMSTWGQGTTVTVSS
VL: DIQMTQSPSSLSASVGDRVTITCRPSQDISNYLNWYQQKPDKTVKLLIYYTSRLRSGVPSRFSGSGSGTDFTFTISSLQPEDIATYFCQQGDTLPYTFGQGTKLEIK

Columns and labels:
[1] = target: T1, extracellular portion of cynomolgus …; assay: SPR (BIACORE); molecule captured on anti-human Fc; cynoCD137 6.25-100 nM; 1:1 Langmuir
Experimental: (§1) The amino acid sequences of these clones were incorporated into the 5 chain diabody DART-G to yield optimized DART-G molecules (designated as DART-G1, DART-G2; DART-G3, and DART-G4). The binding affinity of DART-G2, DART-G3, and DART-G4 were evaluated via BIAcore (Table 11). For such evaluation, His-tagged soluble human CD137 (huCD137) or cynomolgus monkey CD137 (cynoCD137) (containing an extracellular portion of human or cynomolgus monkey CD137 fused to a histidine-containing peptide) was passed over a surface coated with immobilized antibody. Briefly, each test molecule was captured onto an F(ab)₂ goat-anti-human Fc-coated surface and then incubated in the presence of different concentrations (6.25-100 nM) of huCD137 or cynoCD137. The kinetics of binding were determined via BIACORE® analysis binding (normalized 1:1 Langmuir binding model).

[2] = target: T2, HER2/neu on the surface of target cells (N87, JIMT-1, MCF-7, MDA-MB231) (UniProt P04626 23-1255, limits assumed); assay: flow cytometry on JIMT-1 cells, anti-hFc APC MFI
T2 construct: whole, on cells
Experimental: (§2) CD137×TA Binding Molecules, DART-B, DART-D, DART-G and the control molecules DART-3 and DART-6 were additionally evaluated for their ability to bind to HER2/neu expressed on N87 cells (FIG. 13A) and JIMT-1 cells (FIG. 13B). For such evaluation, 100 μL of HER2/neu expressing target cells (1.0×1⁰⁶ cells/mL) and 100 μL of serially diluted (5- or 10-fold dilutions) test article (bispecific diabody) were added to each well of microtiter assay plate(s), mixed and incubated at RT for 45 min. The cells were washed with FACS Buffer and secondary antibody (anti-human-Fc region-APC) was then added to each well; mixed and incubated at RT for 30 min. Cells were washed and resuspended in 100 μL FACS Buffer and analyzed by flow cytometry (BD LSR Fortessa or FACSCanto 11) for cell event collection. Data analysis were performed via FloJo v10.

[3] = target: T2, HER2/neu on the surface of target cells …; assay: flow cytometry on MCF-7 cells, anti-hFc APC MFI
[4] = target: T2, HER2/neu on the surface of target cells …; assay: flow cytometry on N87 cells, anti-hFc APC MFI
Experimental: as §2

[5] = target: T2, HER2/neu on the surface of target cells …; assay: flow cytometry on N87 cells, anti-hFc APC MFI; remark: listed apart in the source
[6] = target: T3, CD137 on the surface of cells (activated human T cells; engineered CHO cells) (human, UniProt Q07011 24-255); assay: flow cytometry on CD137-expressing CHO cells (CHO/137), anti-hFc APC MFI
T3 construct: whole, on cells; also called human CD137; cell surface expressed CD137

[7] = target: T3, CD137 on the surface of cells …; assay: flow cytometry on activated CD8+ T cells (donor D53781, CD8 FITC), anti-hFc APC MFI
[8] = target: T2, HER2/neu on the surface of target cells …; assay: flow cytometry on JIMT-1 cells, anti-hFc APC MFI; remark: listed apart in the source
[9] = target: T3, CD137 on the surface of cells …; assay: flow cytometry on CD137-expressing CHO cells (CHO/137), anti-hFc APC MFI; remark: listed apart in the source
[10] = target: T3, CD137 on the surface of cells …; assay: flow cytometry on activated CD8+ T cells (CD8 FITC), anti-hFc APC MFI
[11] = target: T4, extracellular portion of human CD137 fused to a histidine-containing peptide (human, UniProt Q07011 24-186); assay: SPR (BIACORE); molecule captured on anti-human Fc; huCD137 6.25-100 nM; 1:1 Langmuir
T4 construct: extracellular domain; also called huCD137; His-tagged soluble human CD137
Experimental: as §1

[12] = target: T3, CD137 on the surface of cells …; assay: flow cytometry on activated pan T cells (donor D46433, CD8 PE), anti-hFc APC MFI
[13] = target: T1, extracellular portion of cynomolgus …; assay: SPR (BIACORE); molecule captured on anti-human Fc; cynoCD137 6.25-100 nM; column head ×10^-4 applied as printed
Experimental: as §1

[14] = target: T3, CD137 on the surface of cells …; assay: flow cytometry on activated pan T cells gated CD8+ (donor D43867), anti-hFc APC MFI
Experimental: Three antibodies were selected for further study. For such evaluations, purified pan T-cells (see above) were stimulated with anti-CD3/CD28 beads (cells:beads=1:1) for 72 hours in the presence of IL-2 (100 U/mL). 100 μL of activated T cells (1.0×10⁶ cells/mL) and 100 μL of serially diluted (5- or 10-fold dilutions) test article (antibody or bispecific diabody) was added to each well of microtiter assay plate(s), mixed and incubated at RT for 45 min. The cells were washed with FACS Buffer and secondary antibody (anti-human-Fc region-APC) was then added to each well; mixed and incubated at RT for 30 min. Cells were then washed FACS Buffer and T cell surface marker antibodies (anti-CD4 labeled with V510, and anti-CD8 labeled with FITC) were then added to each well; mixed and incubated at RT for 30 min. Cells were washed and resuspended in 100 μL FACS Buffer and analyzed by flow cytometry (BD LSR Fortessa or FACSCanto 11) for cell event collection. Data analysis were performed via FloJo v10.

T3 sequence (Q07011 24-255, change not shown): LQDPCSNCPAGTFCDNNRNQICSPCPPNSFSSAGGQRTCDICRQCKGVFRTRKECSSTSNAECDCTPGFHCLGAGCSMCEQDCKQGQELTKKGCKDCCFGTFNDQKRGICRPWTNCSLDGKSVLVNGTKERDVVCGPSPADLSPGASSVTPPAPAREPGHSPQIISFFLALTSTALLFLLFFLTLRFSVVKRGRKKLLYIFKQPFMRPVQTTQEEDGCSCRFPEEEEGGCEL

Binder | Kd [1] [nM] | kon [1] [M⁻¹ s⁻¹] | EC50 (read off the curve) [2] [µg/mL] | EC50 (read off the curve) [3] [nM] | EC50 (read off the curve) [4] [µg/mL] | EC50 (read off the curve) [5] [nM] | EC50 (read off the curve) [6] [µg/mL] | EC50 (read off the curve) [7] [µg/mL] | EC50 (read off the curve) [8] [nM] | EC50 (read off the curve) [9] [µg/mL] | EC50 (read off the curve) [10] [µg/mL] | Kd [11] [nM] | koff [11] [s⁻¹] | kon [11] [M⁻¹ s⁻¹] | EC50 (read off the curve) [12] [nM] | koff [13] [s⁻¹] | EC50 (read off the curve) [14] [µg/mL]
B1 | 115 | 390000 | ~0.04 | ~0.09 | ~0.1 | ~0.5 | ~0.02 | ~0.03 | ~0.2 | ~0.02 | ~0.03 | 114 | 0.042 | 370000 | ~0.1 | 0.045 | 
B2 |  |  |  |  |  |  |  |  |  |  |  |  |  |  |  |  | ~0.007
